Test results taken from US20190169308A1.

B1: 1212/1213 (antibody, V domains shown)
VH: EVQLLESGGGLVQPGGSLRLSCAASGFTFSSYAMSWVRQAPGKGLEWVSYISSYGGYTSYADSVKGRFTISRDNSKNTLYLQMNSLRAEDTAVYYCARYHSGVLDYWGQGTLVTVSS
VL: DIQMTQSPSSLSASVGDRVTITCRASQSISSYLNWYQQKPGKAPKLLIYAASSLQSGVPSRFSGSGSGTDFTLTISSLQPEDFATYYCQQYYYHYLLTFGQGTKLEIK
B2: 1206/1207 (antibody, V domains shown)
VH: EVQLLESGGGLVQPGGSLRLSCAASGFTFSGSSMSWVRQAPGKGLEWVSSIYYSGSGTYYADSVKGRFTISRDNSKNTLYLQMNSLRAEDTAVYYCARYGRNVHPYNLDYWGQGTLVTVSS
VL: DIQMTQSPSSLSASVGDRVTITCRASQSISSYLNWYQQKPGKAPKLLIYAASSLQSGVPSRFSGSGSGTDFTLTISSLQPEDFATYYCQQGYYYLPTFGQGTKLEIK

Molecular target: human/mouse 5T4 chimera aa173-420 (human; mouse) (UniProt Q13641)
Experiment: flow cytometry, cells with human/mouse 5T4 chimera

Sequence of human/mouse 5T4 chimera aa173-420 (human; mouse) (Q13641 other isoform, or with tags, fused parts or gaps mutant limits assumed, form in doubt): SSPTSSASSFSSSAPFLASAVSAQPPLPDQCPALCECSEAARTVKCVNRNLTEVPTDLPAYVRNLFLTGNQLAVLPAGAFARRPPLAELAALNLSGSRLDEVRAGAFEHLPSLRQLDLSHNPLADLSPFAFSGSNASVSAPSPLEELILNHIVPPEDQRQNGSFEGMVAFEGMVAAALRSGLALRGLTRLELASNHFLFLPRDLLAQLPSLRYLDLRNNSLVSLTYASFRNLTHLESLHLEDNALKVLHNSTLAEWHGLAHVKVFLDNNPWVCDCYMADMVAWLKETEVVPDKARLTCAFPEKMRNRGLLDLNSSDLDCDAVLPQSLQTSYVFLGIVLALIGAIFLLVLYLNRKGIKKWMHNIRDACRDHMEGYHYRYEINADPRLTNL

| normalized % positive cells | Binder |
| --- | --- |
| -0.01 | B1 |
| 0.3 | B2 |
